In this series the target is T1, GST-TaSPL14 (UniProt A0A3B6LP29 1-396).
T1 sequence: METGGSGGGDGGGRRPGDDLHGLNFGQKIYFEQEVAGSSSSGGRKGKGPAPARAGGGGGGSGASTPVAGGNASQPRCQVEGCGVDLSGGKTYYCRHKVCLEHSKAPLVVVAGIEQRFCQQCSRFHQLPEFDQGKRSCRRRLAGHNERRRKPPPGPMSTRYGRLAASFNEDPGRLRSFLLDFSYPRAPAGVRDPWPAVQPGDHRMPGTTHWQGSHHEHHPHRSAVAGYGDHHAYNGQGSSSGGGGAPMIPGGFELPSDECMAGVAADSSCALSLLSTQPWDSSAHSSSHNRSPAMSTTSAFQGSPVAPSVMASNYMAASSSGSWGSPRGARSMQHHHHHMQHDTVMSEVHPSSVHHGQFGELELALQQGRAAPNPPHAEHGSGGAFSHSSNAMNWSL
The experiment in a line: EMSA; 10 mM ZnCl2, poly dI-dC; competed by unlabeled probe; EMSA: 1x binding buffer (printed as 100 mM Tris, 500 mM KCl, 10 mM DTT, pH 7.5), 10% glycerol, 0.5 mM EDTA, 10 mM ZnCl2, 50 ng/uL poly dI-dC, 20 uL, 30 min at room temperature, 6% native PAGE. Particulars: protein: recombinant; tags: GST (N-terminal, pGEX6P-1); label: 5' biotin; blunt. On the technique in general: Mobility shift assays separate free from complexed probe on a gel.

Data on three molecules can be found in article PMC7822796, “Pleiotropic function of the SQUAMOSA PROMOTER-BINDING PROTEIN-LIKE gene TaSPL14 in wheat plant architecture”.

B1: TaERF1 promoter probe (dsDNA)
DNA 1: AGAAAAGAAAAAAGTACGATCATTCCTCGT
DNA 2: ACGAGGAATGATCGTACTTTTTTCTTTTCT
For the molecule B1, the binding result was “binds”.

B2: TaEIL1 promoter probe (dsDNA)
DNA 1: GCCAAAACTTTTAGTACAACTTAAGTCTTT
DNA 2: AAAGACTTAAGTTGTACTAAAAGTTTTGGC
B2: the binding result was “binds”.

B3: TaRAP2.11 promoter probe (dsDNA)
DNA 1: ATGACTTGATGCGGTACAATAATATTAAGC
DNA 2: GCTTAATATTATTGTACCGCATCAAGTCAT
As to B3, the binding result is reported as “binds”.
